Assay results: PMC3646756

Columns and labels:
[1] = molecular target: recombinant mouse FcRn (mouse) (UniProt Q61559)
[2] = molecular target: recombinant human FcRn (human) (UniProt P55899)
[3] = molecular target: hIgG1 Fc variant v2 (M252W/N434W) (human); test: SPR; KD at pH 6.0 (Table 1); set-up told only for pH 7.0: antibody variant captured on Protein L on a CM4 chip, FcRn injected
[4] = molecular target: hIgG1 Fc variant v4 (M252Y/N286E/N434Y) (human); test: as above
[5] = molecular target: hIgG1 Fc variant v5 (M252Y/T307Q/Q311A/N434Y) (human); test: as above
[6] = molecular target: hIgG1 Fc variant v6 (M252Y/V308P/N434Y) (human); test: as above
[7] = molecular target: hIgG1 Fc variant v3 (M252Y/N434Y) (human); test: as above
[8] = molecular target: hIgG1 (anti-hsIL-6R antibody with wild-type human IgG1 constant region) (human); test: as above
[9] = molecular target: hIgG1 Fc variant v2 (M252W/N434W) (human); test: SPR; Biacore T200; antibody variant captured on Protein L immobilised on a CM4 chip, FcRn injected over the flow cell; pH 7.0
[10] = molecular target: hIgG1 Fc variant v5 (M252Y/T307Q/Q311A/N434Y) (human); test: as above
[11] = molecular target: hIgG1 Fc variant v6 (M252Y/V308P/N434Y) (human); test: as above
[12] = molecular target: hIgG1 Fc variant v3 (M252Y/N434Y) (human); test: as above
[13] = molecular target: hIgG1 (anti-hsIL-6R antibody with wild-type human IgG1 constant region) (human); test: as above
[14] = molecular target: hIgG1 Fc variant v1 (I332V/N434Y) (human); test: SPR; KD at pH 6.0 (Table 1); set-up told only for pH 7.0: antibody variant captured on Protein L on a CM4 chip, FcRn injected
[15] = molecular target: hIgG1 Fc variant v1 (I332V/N434Y) (human); test: SPR; Biacore T200; antibody variant captured on Protein L immobilised on a CM4 chip, FcRn injected over the flow cell; pH 7.0

hIgG1 Fc variant v1 (I332V/N434Y) (antibody)
total hsIL-6R plasma concentration after PH-v1, 1 mg/kg i.v., normal mice steady-state model (reduction below the baseline) [1]: 150 fold

hIgG1 Fc variant v4 (M252Y/N286E/N434Y) (antibody)
fold decrease in total hsIL-6R plasma concentration after PH-v4 against NPH-IgG1, 1 mg/kg i.v. with 1 g/kg hIgG, hFcRn-Tgm steady-state model [2]: 50 fold

recombinant human FcRn (from UniProt P55899 24-365) (receptor)
Kd [3]: 6 nM
Kd [4]: 8 nM
Kd [5]: 5 nM
Kd [6]: 3 nM
Kd [7]: 15 nM
Kd [8]: 1380 nM
Kd [9]: 155 nM
Kd [10]: 77 nM
Kd [11]: 35 nM
Kd [12]: 288 nM
Kd [13]: 88 µM

recombinant mouse FcRn (from UniProt Q61559 22-365) (receptor)
Kd [14]: 3 nM
Kd [8]: 237 nM
Kd [15]: 52 nM
Kd [13]: 3.92 µM
